From patent US12624123B2, “Compositions and methods for reducing off-target toxicity of antibody drug conjugates” (The Research Foundation for The State University of New York, priority 2019, dated 2026)
Values joined by “and” are separate entries in the source; they are usually repeats but may differ in a detail not shown here. Identical values can stand only once. “Also recorded” adds a separate entry of the source. Like-named read-outs stand apart in the source and are kept apart here.

Legend:
NCI-N87 cells = assay: Cell cytotoxicity with exatecan and trastuzumab deruxtecan, NCI-N87 cells; format: cell-based; conditions: for IC50: free exatecan alone
Description: Cells were incubated with the drug mixture for 24 hours at 37° C., 5% CO2. After incubation drug containing cell culture media was aspirated and 250 μL of fresh RPMI was added, allowing cells to grow for another 4 days. Then cell culture media was aspirated and 125 μL of RPMI with a final concentration of 1 mg/ml MTT was added followed by a four-hour incubation. MTT crystals were dissolved in 0.01 M HCL/10% SDS overnight at 37° C. followed by absorbance reading at 570 nm (corrected to 640 nm).

Ramos cells = assay: MTT cytotoxicity of calicheamicin on Ramos cells; format: cell-based; conditions: 24 h, calicheamicin alone
Description: (§1) Log-phase MOLM-14, Ramos (RA 1), HT-29, LS174T, or NCI-N87 cells were seeded in 96-well microtiter plates at a density of 20,000 cells/well, 20,000 cells/well, 5,000 cells/well, 5,000 cells/well, and 10,000 cells/well, respectively, in 100 μL of culture medium. HT-29, LS174T, and NCI-N87 cells were allowed to adhere for 24 h before cell culture media was aspirated and replaced with 100 μL of fresh media containing a range of treatment for, 48 (LS174T), 96 (NCI-N87), or 120 (HT-29) h. MOLM-14 and Ramos cells were re-suspended with treatment solutions, where 100 μL of cell-treatment suspension was aliquoted into wells of a 96-well plate for 24 h. Treatment solutions consisted of calicheamicin, MMAE, topotecan, or SN38 with or without immunized animal plasma, purified anti-drug antibody, or antibody-drug conjugate (ADC) with or without plasma or anti-drug antibody. For MOLM-14 and Ramos cells, 25 μL of MTT solution (5 mg/mL in pH 7.4 1× PBS) was added directly to wells following treatment incubation. For adherent cells, treatment media was aspirated from wells and cells were washed three times with 100 μL of fresh media. Following the final wash, 100 μL of complete media and 25 μL of MTT solution were added to each well. Cells were incubated for 4 h in order to allow cells to reduce MTT to formazan dye. Once MTT was reduced, 100 μL of 10% SDS prepared in 0.01 M HCl was added to each well and incubated overnight to solubilize the formazan crystals. Formazan dye was measured at 570 nm and normalized by cell debris at 690 nm.
(§2) Fresh media containing a range of treatment were pre-incubated with or without 100 μM purified sdAb at room temperature for 30 minutes. Log-phase MOLM-14 cells were seeded in 96-well microtiter plates at a density of 20,000 cells/well, and were re-suspended with treatment solutions, where 100 μL of cell-treatment suspension was aliquoted into wells of a 96-well plate for 24 h. 25 μL of MTT solution (5 mg/mL in pH 7.4 1× PBS) was added directly to wells following treatment incubation. […] Formazan dye was measured at 570 nm and normalized by cell debris at 690 nm.

SK-BR-3 cells [1] = assay: MTT cytotoxicity assay in SK-BR-3 cells; format: cell-based
Lovo cells = assay: MTT cytotoxicity of DM1 and DM4 on Lovo cells; format: cell-based; conditions: for IC50: DM1 alone, read-out: IC50 of DM1
Description: Log-phase Lovo or MOLM-14 cells were seeded in 96-well microtiter plates at a density of 5,000 cells/well, in 100 μL or 70 μL of culture medium, respectively. […] MOLM-14 cells were re-suspended with treatment solutions, where 100 μL of cell-treatment suspension was aliquoted into wells of a 96-well plate for 24 h. Treatment solutions consisted of DM-4 with or without purified anti-drug sdAb. For MOLM-14 cells, 10 μL of MTT solution (5 mg/mL in pH 7.4 1× PBS) was added directly to wells following treatment incubation. For adherent cells, treatment media was aspirated from wells and cells were washed three times with 100 μL of fresh media. Following the final wash, 100 μL of complete media and 25 μL of MTT solution were added to each well. Cells were incubated for 4 h in order to allow cells to reduce MTT to formazan dye. Once MTT was reduced, 100 μL of 10% SDS prepared in 0.01 M HCl was added to each well and incubated overnight to solubilize the formazan crystals. Formazan dye was measured at 570 nm and normalized by cell debris at 690 nm.

MOLM-14 cells = assay: MTT cytotoxicity of calicheamicin on MOLM-14 cells; format: cell-based, human; conditions: 24 h, 100 μM peptide or sdAb
Description: as §1, §2

[2] = Competitive ELISA with free DM4; format: binding; conditions: for Kd: free DM4, read-out: Estimated KD; for IC50: read-out: Estimated binding affinity IC50 to free DM4
Description: To determine the binding affinity of the anti-DM4 sdAbs to DM4-conjugates and free DM4, indirect ELISA and competitive ELISA were employed. Briefly, ELISA plate were coated overnight with 100 μL of neutravidin at different concentration ranging from 1 μg/mL to 10 μg/mL. After blocking with 200 μL of 2% skimmed milk-PBST for 1 h, 100 μL of 1 μM biotin-DM4 solution was added into each well and incubated for 30 min, then 100 μL of purified anti-DM4 sdAb solution at concentration ranging from 0.1 nM to 1 μM was added and incubated for 1 h. Bound sdAbs were detected with HRP conjugated anti-His antibody and TMB substrate. After the linear range of binding was determined via the indirect ELISA, a concentration of anti-DM4 sdAb near the IC50 of binding was selected to proceed with competitive ELISA. For the competitive ELISA, anti-DM4 sdAb concentration was held constant as determined from the indirect ELISA and incubated with increasing concentration of DM4 ranging from 0.1 nM to 1 μM.

SK-BR-3 cells [3] = assay: MTT cytotoxicity assay in SK-BR-3 cells; format: cell-based; conditions: 24 h exposure, 10 μM sdAb
Description: Positive clone sdAbs' DNA in pComb3XSS plasmid was isolated and transferred into pET-22b expression vector in SHuffle cells for expression. SK-BR-3 cells were used to test the anti-DM4 sdAbs effect on DM4 cytotoxicity. Briefly, 2,500 cells/well were seeded into a 96-well plate and allowed to adhere for 24 h before cell culture media was aspirated and replaced with 100 μL of fresh media solution containing with or without 10 μM of anti-DM4 sdAb and a range of DM4 concentration for another 24 h exposure period. The cells were then washed 2 times before replacing with fresh media and allowed to grow for additional 72 h.

[4] = SPR dissociation screening on DM1-Biotin chip; format: binding; conditions: 20 min dissociation phase
Description: Preliminary screening of DM1/4 binders were performed using a neutravidin SPR chip with DM1-Biotin on the left channel. Phagemid purified sdAbs were flowed over the SPR chip for 2 minutes at a flow rate of 25 ul/min. After binding, sdAb was dissociated for 20 minutes. Observed sensorgrams were fit to an individual dissociation rate constant for each construct. Equilibrium and kinetic binding of 3A2 was assessed using a CM5 SPR chip with TDM1 immobilized on the left channel. […] Rate constants for 3A2-TDM1 association and dissociation were obtained through fitting of the observed sensorgrams for the 1.25, 2.5, 5, 7.5 and 10 nM injections to a 1:1 Langmuir binding model.

`CC[C@@]1(O)C(=O)OCc2c1cc1n(c2=O)Cc2c-1nc1cc(F)c(C)c3c1c2[C@@H](N)CC3` [exatecan, reference compound] gave an IC50 (NCI-N87 cells; Homo sapiens, NCI-N87, NCI-N87 cells) of 1.5 nM and an IC50 (NCI-N87 cells; NCI-N87 cells) of 2.1 nM.

In the case of calicheamicin, the IC50 (Ramos cells) is reported as 2.5 nM and 2.98 nM and the IC50 (Ramos cells; listed as Calicheamicin) is reported as 2.5 ± 0.224 nM.

For `COc1cc2cc(c1Cl)N(C)C(=O)C[C@H](OC(=O)[C@H](C)N(C)C(=O)CCS)[C@]1(C)O[C@H]1[C@H](C)[C@@H]1C[C@@](O)(NC(=O)O1)[C@H](OC)/C=C/C=C(\C)C2` [DM1], the IC50 (SK-BR-3 cells [1]; 24 h exposure, DM1 alone, read-out: IC50 of DM1) was 4.43 nM, the IC50 (Lovo cells; 6 h exposure) was 30.5 nM and 22.1 nM and the IC50 (Lovo cells; 24 h exposure) was 3.07 nM and 2.12 nM.

For “anti-calicheamicin peptide HSWHWPSWWAGGGGGS (SEQ ID NO:1) [C2]”, the “fold change of calicheamicin IC50” value (MOLM-14 cells) was 5.69 fold.

For “anti-calicheamicin peptide SWWFPQWMAQYPGGGS (SEQ ID NO:2) [C9]”, the “fold change of calicheamicin IC50” value (MOLM-14 cells) was 3.56 fold.

T-DM1 [reference compound] gave an IC50 (SK-BR-3 cells [1]; 24 h, without DMFH1, read-out: IC50 of T-DM1) of 0.0128 nM.

B1: 8C2 Fab: Fab of 8C2 by papain digestion; heavy SEQ ID NO:4, light SEQ ID NO:5 (antibody)
heavy: MKCSWVIFFLMAVVTGVNSEEVQLQQSGAELVKPGASVKLSCTASGFNIKDTYIHWVKQRPEQGLEWIGMIDLANDNTKYDPKFQGKATIITDTSSNKAYLQVSSLTSEDTAVYYCATWGAIITLGGWGQGTLVTVSAAKTTPPSVYPLAPGSAAQTNSMVTLGCLVKGYFPEPVTVTWNSGSLSSGVHTFPAVLQSDLYTLSSSVTVPSSTWPSETVTCNVAN
light: MSVLTQVLALLLLWLTGARCDIQMTQSPASLSASVGETVTITCRASGNIHNSLAWYQQIKGRSPQLLVYNAKTLADGVPSRFSGSGSGTQYSLKINSLHPEDFGSYYCQHFWSTPFTFGSGTKLEIKRADAAPTVSIFPPSSEQLTSGGASVVCFLNNFYPKDINVKWKIDGSEERQNGVLNSWTDQDSKDSTYSMSSTLTLTKD
modifications: 8C2 Fab heavy chain; 8C2 Fab light chain
In the case of B1, the “effect on trastuzumab deruxtecan cytotoxicity” value (NCI-N87 cells; NCI-N87 cells, ADC with 8C2 mAb or Fab) is reported as “did not prevent cell death; also recorded: does not significantly alter”.

B2: DF3A4 (protein)
VHH: QVQLQESGGGLVQPGGSLRLSCAASGSIFGISYMGWYRQAPGKQREPVALITSGGSTYYADSVKGRVTISRDNAKKTVYLQMNSLRPEDTSTYYCAAGFYRSDSPNRYDYWGQGTQVTVSS
modifications: DF3A4
With B2 the “fold shift of DM4 IC50” value (Lovo cells; 6 h exposure) was 5.88 fold and the “fold shift of DM1 IC50” value (Lovo cells; 6 h exposure, 10 μM sdAb) was 14.8 fold.

B3: DMFH2 (protein)
VHH: QVQLQESGGGLVQPGGSLRLSCAASGSTFGISYMGWYRQAPGKQREPVAMITSGGSTYYVDSVKGRVTISRDNAKKTVYLQMNSLRPEDTSTYYCAAGFYRSDSPNRYDYWGQGTQVTVSS
modifications: DMFH2
With B3 the Kd [2] was 25 nM and 25.2 nM, the IC50 [2] was 25 nM and the “Fold shifted (DM4 IC50)” value (SK-BR-3 cells [3]) was 150 fold and 149.4 fold.

B4: DMFB8 (protein)
VHH: QVQLQESGGGLVQPGGSLRLSCAASGSIFGISYMGWYRQAPGKQREPVAMITSGGSTYYADSVKGRVTISRDNAKKTVYLQMYSLRPEDTSTYYCAAGYYRSDSPNRYDYWGQGTQVTVSS
modifications: DMFB8
With B4 the “Fold shifted (DM4 IC50)” value (SK-BR-3 cells [3]) was 140 fold and 140.2 fold.

B5: DMOF8 (protein)
VHH: QVQLQESGGGLVQPGGSLRLSCAASGSIFGISYMGWYRQAPGKQREPVAMITSSGSTYYADSVRGRVTISRANAKKTVYLQMNSLRPEDTSTYYCAAGYYRSDSPNRYDYWGQGTQVTVSS
modifications: DMOF8
In the case of B5, the Kd [2] is reported as 26 nM and 26.2 nM, the IC50 [2] is reported as 26 nM and the “Fold shifted (DM4 IC50)” value (SK-BR-3 cells [3]) is reported as 104 fold and 104.1 fold.

B6: DF4B12 (protein)
VHH: EVQLVESGGGLVQPGGSLRLSCAASGSIFGISYMGWYRQAPGKQREPVALITSGGDTAYGDSVKGRFTISRDNAKNTVYLQMNSLTPEDTSTFYCAAGFYRSDSPNRYDYWGQGTQVTVSS
modifications: DF4B12
In the case of B6, the “fold shift of DM4 IC50” value (Lovo cells; 6 h exposure) is reported as 15.5 fold, the “fold shift of DM1 IC50” value (Lovo cells; 6 h exposure, 10 μM sdAb) is reported as 53 fold and the “fold shift of DM4 IC50” value (Lovo cells; 24 h exposure, 10 μM sdAb) is reported as 8.66 fold and 9.4 fold.

B7: DMFF2 (protein)
VHH: QVQLQESGGGLVQPGGSLRLSCAASGSIFGISYMGWYRQAPGKQREPVALITSGGSTYYVDSVKGRVTISRDNAKKTVYLQMNSLRPEDTSTYYCAAGYYRSDSPNRYDYWGQGTQVTVSS
modifications: DMFF2
In the case of B7, the Kd [2] is reported as 57 nM and 56.6 nM, the IC50 [2] is reported as 57 nM and the “Fold shifted (DM4 IC50)” value (SK-BR-3 cells [3]) is reported as 95 fold and 93.65 fold.

B8: DMOH9: affinity matured Anti-DM1/DM4 sdAb, SEQ ID NO:32 (protein)
VHH: QVQLQESGGGLVQPGGSLRLSCAASGSIFGITYMGWYRQAPGKQREPVAMITSGGSTYYADSVKGRVTISRDNAKKTVYLQMNSLRPEDTSTYYCAAGYYRSDSPNRYDYWGQGTQVTVSS
modifications: DMOH9
With B8 the Kd [2] was 20 nM and 19.9 nM, the IC50 [2] was 20 nM and the “Fold shifted (DM4 IC50)” value (SK-BR-3 cells [3]) was 210 fold and 209.5 fold.

B9: DT3B3 (protein)
VHH: EVQLVESGGGLVQAGGSLRLSCALSGGTLRSYTMGWIRQAPGKEREFVAGNRWSGGRTYYADSVKGRFTISGDNAENTVYLQMNSLKPEDTAVYYCTADVTEYGEDSSAYWGRGTQVTVSS
modifications: DT3B3
For B9, the dissociation kinetics [4] was “longest dissociation rates; also recorded: longer dissociation rates”.
